Article PMC11931385, “Structural and functional analysis of cancer-associated missense variants in the retinoblastoma protein pocket domain” (The Journal of Biological Chemistry, 2025)
Substitutions are numbered along the chain they refer to. Names may count otherwise. No end group written: not given here. TMR = tetramethyl rhodamine dye

B1: TMR-E2F1^TD, peptide of the E2F1 transactivation domain (peptide)
peptide: {TMR}-GEGIRDLFDCDFGDLTPLD
notes: also called E2F^TD; source: synthetic peptide, bought: GenScript
B2: TMR-E7^LxCxE, LxCxE peptide of the E7 oncoprotein from HPV (peptide)
peptide: DLYCYEQLN
modifications: also: TMR label, position not given here
notes: source: synthetic peptide, bought: GenScript

Columns and labels:
Assay in all cases: fluorescence polarisation; 25 °C; unlabeled Rb^P titrated against 1.5 nM TMR-E2F1^TD or 7.5 nM TMR-E7^LxCxE; 25 mM Tris pH 8.0, 200 mM NaCl, 1 mM DTT, 0.1% Tween-20; 2 min incubation; quadratic fit; apparent Kd for the variants, Kd for WT
Settings in all cases: both partners purified
Rb^P R741C = molecular target: T1, Rb^P R741C (human, UniProt P06400 380-788, R741C)
T1 construct: also called variant 68
T1 sequence (looked up): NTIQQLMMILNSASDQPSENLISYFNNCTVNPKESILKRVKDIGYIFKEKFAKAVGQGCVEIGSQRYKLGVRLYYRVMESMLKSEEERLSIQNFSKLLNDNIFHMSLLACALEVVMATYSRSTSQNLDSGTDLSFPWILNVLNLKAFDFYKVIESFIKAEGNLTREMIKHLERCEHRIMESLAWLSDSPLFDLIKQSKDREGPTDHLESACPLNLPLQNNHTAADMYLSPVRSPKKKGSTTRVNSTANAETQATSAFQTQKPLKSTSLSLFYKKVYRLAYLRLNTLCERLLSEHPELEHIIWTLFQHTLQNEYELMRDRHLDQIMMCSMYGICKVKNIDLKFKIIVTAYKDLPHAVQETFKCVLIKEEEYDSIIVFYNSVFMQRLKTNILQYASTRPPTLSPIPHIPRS

Rb^P A490S = molecular target: T2, Rb^P A490S (human, UniProt P06400 380-788, A490S)
T2 construct: also called variant 15
T2 sequence (looked up): T1 sequence (looked up) with A111S, C362R

Rb^P H686Y = molecular target: T3, Rb^P H686Y (human, UniProt P06400 380-788, H686Y)
T3 construct: also called variant 58
T3 sequence (looked up): T1 sequence (looked up) with H307Y, C362R

Rb^P E492Q = molecular target: T4, Rb^P E492Q (human, UniProt P06400 380-788, E492Q)
T4 construct: also called variant 18
T4 sequence (looked up): T1 sequence (looked up) with E113Q, C362R

Rb^P Y606C = molecular target: T5, Rb^P Y606C (human, UniProt P06400 380-788, Y606C)
T5 construct: also called variant 37
T5 sequence (looked up): T1 sequence (looked up) with Y227C, C362R

Row | Binder | Kd (Rb^P R741C) | Kd (Rb^P A490S) | Kd (Rb^P H686Y) | Kd (Rb^P E492Q) | Kd (Rb^P Y606C)
1 | B1 | 0.023 µM | 0.017 µM | 0.02 µM | 0.022 µM | 0.015 µM
2 | B2 | 0.014 µM | 0.007 µM | 0.005 µM | 0.014 µM | 0.007 µM
